The target of the assay is T1, 重组人Trop-2蛋白 (human, UniProt P09758 27-274, limits assumed).
T1 construct: Purified recombinant protein coated on ELISA plates; also called recombinant human Trop-2 protein; 重组的Trop-2蛋白
T1 sequence (looked up): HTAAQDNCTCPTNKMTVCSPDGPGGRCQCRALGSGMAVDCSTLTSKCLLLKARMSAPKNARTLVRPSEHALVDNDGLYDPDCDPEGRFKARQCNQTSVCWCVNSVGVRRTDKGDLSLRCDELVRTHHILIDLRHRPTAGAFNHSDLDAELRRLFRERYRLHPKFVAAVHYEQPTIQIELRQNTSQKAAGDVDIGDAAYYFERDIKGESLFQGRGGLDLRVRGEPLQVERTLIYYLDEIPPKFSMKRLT
The assay can be described thus: phage ELISA of single clones after five rounds of panning on recombinant human Trop-2. In general terms: ELISA stands for enzyme-linked immunosorbent assay.

B1: 抗Trop-2的特异性人源Fab抗体 (Fab, V domains shown)
VH: QVQLVESGGGVVQPGRSLRLSCAASGFTFSSYGMHWVRQAPGKGLEWVAVIWYDGSNKYYADSVKGRFTISRDNSKNTLYLQMNSLRAEDTAVYYCARDPGWGFDYWGQGTLVTVSS
VL: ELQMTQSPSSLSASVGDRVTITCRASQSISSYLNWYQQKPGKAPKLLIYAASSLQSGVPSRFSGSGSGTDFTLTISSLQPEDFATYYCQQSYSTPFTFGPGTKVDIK
notes: also called 抗Trop-2抗体Fab; pComb3x-Fab
Consider B1, for which the binding result is recorded as “binds”.
